Ends that are not written are not given here.
What follows are binders tested against GST–BIR3 fusion protein (XIAP BIR3 domain) (assay: FMAT bead-based fluorescence competition assay).

IC50 [µM]	Binder
0.27	AVPIAQ-NH2 [Smac 6-mer peptide AVPIAQ (compound 2)]
0.39	AVPIAQK-NH2 [Smac 7-mer peptide AVPIAQK (compound 1)]
0.3	AVPIA-NH2 [Smac 5-mer peptide AVPIA (compound 3)]

The remaining lines, values behind:

Binder	IC50 [µM]
AIAY-NH2 [Grim 4-mer peptide AIAY (compound 8)]	0.34
AIPF-NH2 [AIPF (compound 16)]	0.08
ALPF-NH2 [ALPF (compound 15)]	0.18
SVPF-NH2 [SVPF (compound 10)]	1
ATPF-NH2 [ATPF (compound 17)]	0.2
